{"source": "patent US20060045884A1", "about": "“Vaccines for autoimmune and infectious disease” (Board of Regents, priority 2004, published 2006)", "target": "HLA-A2.1 heavy chain with I125-labeled β2-microglobulin (heterotrimer dissociation assay) (human)", "assay": "dissociation of 125I-β2-microglobulin from the HLA-A2.1/peptide/β2m heterotrimer, HPLC gel filtration", "data": [{"substance": "HTLV-1 Tax peptide (aa 11-19) (from UniProt P03409 11-19) (peptide; other documents disagree on this pair)", "values": [{"measurement": "T1/2", "result": 133, "unit": "h"}]}]}
